Test system: non-human primates (cynomolgus monkey)
Assay: Example 22: NHP serum chemistry ALT and AST (Tables 45, 46)
Format: in vivo
[1] = 0.005 mg/kg, 2 days, Female NHP
[2] = 0.005 mg/kg, 4 days, Female NHP
[3] = 0.005 mg/kg, 7 days, Female NHP
[4] = 0.005 mg/kg, 14 days, Female NHP
[5] = 0.005 mg/kg, Pre-dose, Female NHP
[6] = 0.005 mg/kg, Pre-dose, Male NHP
[7] = 0.05 mg/kg, 14 days, Female NHP
[8] = 0.05 mg/kg, Pre-dose, Female NHP
[9] = 0.5 mg/kg, Pre-dose, Female NHP

B1: G-CSF: modified mRNA encoding human G-CSF, SEQ ID NO: 4, Cap1, fully modified with 5-methylcytosine and pseudouridine; LNP-formulated in Examples 16-22 (nucleic acid)
chain: GGGAAAUAAGAGAGAAAAGAAGAGUAAGAAGAAAUAUAAGAGCCACCAUGGCCGGUCCCGCGACCCAAAGCCCCAUGAAACUUAUGGCCCUGCAGUUGCUGCUUUGGCACUCGGCCCUCUGGACAGUCCAAGAAGCGACUCCUCUCGGACCUGCCUCAUCGUUGCCGCAGUCAUUCCUUUUGAAGUGUCUGGAGCAGGUGCGAAAGAUUCAGGGCGAUGGAGCCGCACUCCAAGAGAAGCUCUGCGCGACAUACAAACUUUGCCAUCCCGAGGAGCUCGUACUGCUCGGGCACAGCUUGGGGAUUCCCUGGGCUCCUCUCUCGUCCUGUCCGUCGCAGGCUUUGCAGUUGGCAGGGUGCCUUUCCCAGCUCCACUCCGGUUUGUUCUUGUAUCAGGGACUGCUGCAAGCCCUUGAGGGAAUCUCGCCAGAAUUGGGCCCGACGCUGGACACGUUGCAGCUCGACGUGGCGGAUUUCGCAACAACCAUCUGGCAGCAGAUGGAGGAACUGGGGAUGGCACCCGCGCUGCAGCCCACGCAGGGGGCAAUGCCGGCCUUUGCGUCCGCGUUUCAGCGCAGGGCGGGUGGAGUCCUCGUAGCGAGCCACCUUCAAUCAUUUUUGGAAGUCUCGUACCGGGUGCUGAGACAUCUUGCGCAGCCGUGAAGCGCUGCCUUCUGCGGGGCUUGCCUUCUGGCCAUGCCCUUCUUCUCUCCCUUGCACCUGUACCUCUUGGUCUUUGAAUAAAGCCUGAGUAGGAAG
modifications: Cap1, 5-methylcytosine, pseudouridine
B1 was tested, and the ALT [1] was 32 U/L, the AST [1] was 34 U/L and the ALT (0.005 mg/kg, 2 days, Male NHP) was 39 U/L. It also gave an AST (0.005 mg/kg, 2 days, Male NHP) of 70 U/L, an ALT [2] of 58 U/L and an AST [2] of 36 U/L. For the same molecule, the ALT (0.005 mg/kg, 4 days, Male NHP) was 48 U/L, the AST (0.005 mg/kg, 4 days, Male NHP) was 39 U/L and the ALT [3] was 55 U/L. It also gave an AST [3] of 31 U/L, an ALT (0.005 mg/kg, 7 days, Male NHP) of 29 U/L and an AST (0.005 mg/kg, 7 days, Male NHP) of 28 U/L. For the same molecule, the ALT [4] was 46 U/L, the AST [4] was 20 U/L and the ALT (0.005 mg/kg, 14 days, Male NHP) was 44 U/L. It also gave an AST (0.005 mg/kg, 14 days, Male NHP) of 39 U/L, an ALT [5] of 51 U/L and an AST [5] of 54 U/L. For the same molecule, the ALT [6] was 43 U/L, the AST [6] was 35 U/L and the ALT (0.05 mg/kg, 2 days, Female NHP) was 39 U/L. The AST (0.05 mg/kg, 2 days, Female NHP) was 34 U/L, the ALT (0.05 mg/kg, 2 days, Male NHP) was 82 U/L and the AST (0.05 mg/kg, 2 days, Male NHP) was 95 U/L. It also gave an ALT (0.05 mg/kg, 4 days, Female NHP) of 56 U/L, an AST (0.05 mg/kg, 4 days, Female NHP) of 42 U/L and an ALT (0.05 mg/kg, 4 days, Male NHP) of 88 U/L. For the same molecule, the AST (0.05 mg/kg, 4 days, Male NHP) was 69 U/L, the ALT (0.05 mg/kg, 7 days, Female NHP) was 73 U/L and the AST (0.05 mg/kg, 7 days, Female NHP) was 52 U/L. The ALT (0.05 mg/kg, 7 days, Male NHP) was 73 U/L, the AST (0.05 mg/kg, 7 days, Male NHP) was 62 U/L and the ALT [7] was 31 U/L. The AST [7] was 20 U/L, the ALT (0.05 mg/kg, 14 days, Male NHP) was 50 U/L and the AST (0.05 mg/kg, 14 days, Male NHP) was 59 U/L. It also gave an ALT [8] of 53 U/L, an AST [8] of 33 U/L and an ALT (0.05 mg/kg, Pre-dose, Male NHP) of 58 U/L. The AST (0.05 mg/kg, Pre-dose, Male NHP) was 99 U/L, the ALT (0.5 mg/kg, 2 days, Female NHP) was 209 U/L and the AST (0.5 mg/kg, 2 days, Female NHP) was 294 U/L. It also gave an ALT (0.5 mg/kg, 2 days, Male NHP) of 63 U/L, an AST (0.5 mg/kg, 2 days, Male NHP) of 196 U/L and an ALT (0.5 mg/kg, 4 days, Female NHP) of 98 U/L. The AST (0.5 mg/kg, 4 days, Female NHP) was 63 U/L, the ALT (0.5 mg/kg, 4 days, Male NHP) was 70 U/L and the AST (0.5 mg/kg, 4 days, Male NHP) was 67 U/L. The ALT (0.5 mg/kg, 7 days, Female NHP) was 149 U/L, the AST (0.5 mg/kg, 7 days, Female NHP) was 68 U/L and the ALT (0.5 mg/kg, 7 days, Male NHP) was 41 U/L. It also gave an AST (0.5 mg/kg, 7 days, Male NHP) of 53 U/L, an ALT (0.5 mg/kg, 14 days, Female NHP) of 145 U/L and an AST (0.5 mg/kg, 14 days, Female NHP) of 67 U/L. For the same molecule, the ALT (0.5 mg/kg, 14 days, Male NHP) was 43 U/L, the AST (0.5 mg/kg, 14 days, Male NHP) was 47 U/L and the ALT [9] was 216 U/L. It also gave an AST [9] of 47 U/L, an ALT (0.5 mg/kg, Pre-dose, Male NHP) of 29 U/L and an AST (0.5 mg/kg, Pre-dose, Male NHP) of 32 U/L.

B2: EPO: modified mRNA encoding human erythropoietin, SEQ ID NO: 7, Cap1, fully modified with 5-methylcytosine and pseudouridine; LNP NPA-060-1 in Examples 17-22 (nucleic acid)
chain: GGGAAAUAAGAGAGAAAAGAAGAGUAAGAAGAAAUAUAAGAGCCACCAUGGGAGUGCACGAGUGUCCCGCGUGGUUGUGGUUGCUGCUGUCGCUCUUGAGCCUCCCACUGGGACUGCCUGUGCUGGGGGCACCACCCAGAUUGAUCUGCGACUCACGGGUACUUGAGAGGUACCUUCUUGAAGCCAAAGAAGCCGAAAACAUCACAACCGGAUGCGCCGAGCACUGCUCCCUCAAUGAGAACAUUACUGUACCGGAUACAAAGGUCAAUUUCUAUGCAUGGAAGAGAAUGGAAGUAGGACAGCAGGCCGUCGAAGUGUGGCAGGGGCUCGCGCUUUUGUCGGAGGCGGUGUUGCGGGGUCAGGCCCUCCUCGUCAACUCAUCACAGCCGUGGGAGCCCCUCCAACUUCAUGUCGAUAAAGCGGUGUCGGGGCUCCGCAGCUUGACGACGUUGCUUCGGGCUCUGGGCGCACAAAAGGAGGCUAUUUCGCCGCCUGACGCGGCCUCCGCGGCACCCCUCCGAACGAUCACCGCGGACACGUUUAGGAAGCUUUUUAGAGUGUACAGCAAUUUCCUCCGCGGAAAGCUGAAAUUGUAUACUGGUGAAGCGUGUAGGACAGGGGAUCGCUGAUAAGCUGCCUUCUGCGGGGCUUGCCUUCUGGCCAUGCCCUUCUUCUCUCCCUUGCACCUGUACCUCUUGGUCUUUGAAUAAAGCCUGAGUAGGAAG
modifications: Cap1, 5-methylcytosine, pseudouridine
With B2 the ALT [1] was 48 U/L, the AST [1] was 25 U/L and the ALT (0.005 mg/kg, 2 days, Male NHP) was 62 U/L. For the same molecule, the AST (0.005 mg/kg, 2 days, Male NHP) was 29 U/L, the ALT [2] was 50 U/L and the AST [2] was 55 U/L. For the same molecule, the ALT (0.005 mg/kg, 4 days, Male NHP) was 48 U/L, the AST (0.005 mg/kg, 4 days, Male NHP) was 43 U/L and the ALT [3] was 48 U/L. It also gave an AST [3] of 31 U/L, an ALT (0.005 mg/kg, 7 days, Male NHP) of 21 U/L and an AST (0.005 mg/kg, 7 days, Male NHP) of 55 U/L. It also gave an ALT [4] of 51 U/L, an AST [4] of 54 U/L and an ALT (0.005 mg/kg, 14 days, Male NHP) of 43 U/L. For the same molecule, the AST (0.005 mg/kg, 14 days, Male NHP) was 35 U/L, the ALT [5] was 45 U/L and the AST [5] was 40 U/L. It also gave an ALT [6] of 45 U/L, an AST [6] of 39 U/L and an ALT (0.05 mg/kg, 2 days, Female NHP) of 254 U/L. The AST (0.05 mg/kg, 2 days, Female NHP) was 80 U/L, the ALT (0.05 mg/kg, 2 days, Male NHP) was 95 U/L and the AST (0.05 mg/kg, 2 days, Male NHP) was 61 U/L. It also gave an ALT (0.05 mg/kg, 4 days, Female NHP) of 200 U/L, an AST (0.05 mg/kg, 4 days, Female NHP) of 94 U/L and an ALT (0.05 mg/kg, 4 days, Male NHP) of 70 U/L. For the same molecule, the AST (0.05 mg/kg, 4 days, Male NHP) was 48 U/L, the ALT (0.05 mg/kg, 7 days, Female NHP) was 187 U/L and the AST (0.05 mg/kg, 7 days, Female NHP) was 78 U/L. For the same molecule, the ALT (0.05 mg/kg, 7 days, Male NHP) was 64 U/L, the AST (0.05 mg/kg, 7 days, Male NHP) was 53 U/L and the ALT [7] was 216 U/L. The AST [7] was 47 U/L, the ALT (0.05 mg/kg, 14 days, Male NHP) was 29 U/L and the AST (0.05 mg/kg, 14 days, Male NHP) was 32 U/L. The ALT [8] was 160 U/L, the AST [8] was 58 U/L and the ALT (0.05 mg/kg, Pre-dose, Male NHP) was 56 U/L. The AST (0.05 mg/kg, Pre-dose, Male NHP) was 74 U/L, the ALT (0.5 mg/kg, 2 days, Female NHP) was 77 U/L and the AST (0.5 mg/kg, 2 days, Female NHP) was 141 U/L. The ALT (0.5 mg/kg, 2 days, Male NHP) was 98 U/L, the AST (0.5 mg/kg, 2 days, Male NHP) was 125 U/L and the ALT (0.5 mg/kg, 4 days, Female NHP) was 87 U/L. For the same molecule, the AST (0.5 mg/kg, 4 days, Female NHP) was 60 U/L, the ALT (0.5 mg/kg, 4 days, Male NHP) was 94 U/L and the AST (0.5 mg/kg, 4 days, Male NHP) was 71 U/L. For the same molecule, the ALT (0.5 mg/kg, 7 days, Female NHP) was 59 U/L, the AST (0.5 mg/kg, 7 days, Female NHP) was 47 U/L and the ALT (0.5 mg/kg, 7 days, Male NHP) was 60 U/L. The AST (0.5 mg/kg, 7 days, Male NHP) was 56 U/L, the ALT (0.5 mg/kg, 14 days, Female NHP) was 44 U/L and the AST (0.5 mg/kg, 14 days, Female NHP) was 44 U/L. It also gave an ALT (0.5 mg/kg, 14 days, Male NHP) of 88 U/L, an AST (0.5 mg/kg, 14 days, Male NHP) of 82 U/L and an ALT [9] of 31 U/L. It also gave an AST [9] of 20 U/L, an ALT (0.5 mg/kg, Pre-dose, Male NHP) of 50 U/L and an AST (0.5 mg/kg, Pre-dose, Male NHP) of 59 U/L.

From patent publication US20190142971A1, “FORMULATION AND DELIVERY OF MODIFIED NUCLEOSIDE, NUCLEOTIDE, AND NUCLEIC ACID COMPOSITIONS” (ModernaTX, Inc., priority 2013, published 2019)
